± gives the standard deviation of the averaged measurements.
Tested on: ATP
Experiment: switch fluorescence ratio, 500 uM ATP over buffer (Cy3 cluster intensity, sum of 5 cycles each) (fold (ratio)); higher = stronger signal-on switching upon ATP binding; sequences stand for … in TCGTCGGCAGCGTCAGATGTGTATAAGAGACAGTTTTTTTTTTTTTTTTTTTTTTTTT…TC
Settings: aptamer strand: ATP DNA aptamer (quencher-CACCTGGGGGAGTATTGCGGAGGAAGG + anchor), 100 nM annealed; ATP concentration: 500 uM
Summary of the method: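 Values give the fluorescence ratio for each switch-domain sequence, averaged from per-cluster ratios of summed target-cycle to summed buffer-cycle Cy3 intensity. The Cy3-labelled switching-strand clusters sat on a modified Illumina MiSeq flow-cell, were annealed to 100 nM quencher-labelled ATP aptamer, and were imaged in selection buffer, then after 15 min with 500 uM ATP at 22 °C. Five cycles ran with NaOH stripping and re-annealing between them, and clusters outside 100-1000 RFU were excluded.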
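Further: ATP exposure 15 min at 22 °C before imaging.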

Row | Sequence | switch fluorescence ratio
1 | AGGTGTAACA | 1.15 ± 0.2
2 | TTGTACGTGG | 1.07 ± 0.023
3 | GGGGGATTTA | 0.992 ± 0.022
4 | AGGGGGCAAA | 1.02 ± 0.045
5 | AATTTGCGGC | 0.982 ± 0.029
6 | ATGCGGGGGC | 1.045 ± 0.0046
7 | GGGGAGTAGC | 0.999 ± 0.03
8 | TTATACCGTT | 0.999 ± 0.01
9 | TAAGCTTAGT | 1.001 ± 0.0065
10 | TGGTTTGGAG | 0.984 ± 0.057
11 | ATTATGGGTC | 1 ± 0.043
12 | GTAGCAGGCG | 1.13 ± 0.058
13 | TAGTGGGATT | 0.994 ± 0.016
14 | CTGTAATGGT | 1.04 ± 0.061
15 | GAAGCTAGTA | 1.02 ± 0.024
16 | GAATCGTGAG | 0.999 ± 0.04
17 | TTTAACCGGT | 1.047 ± 0.0073
18 | CGATATAGTC | 0.993 ± 0.049
19 | TTCATTGGTT | 0.998 ± 0.038
20 | GATAATAATT | 0.9969 ± 0.0091
21 | CAGTTTCGTT | 1.02 ± 0.037
22 | AGGAAACCCG | 0.994 ± 0.064
23 | TTGGATATTC | 0.997 ± 0.033

Row | Sequence | switch fluorescence ratio
24 | GAGGAGGAAT | 1.01 ± 0.017
25 | TAGGAAGGCG | 1.01 ± 0.047
26 | TCGGGAGCAG | 1.03 ± 0.054
27 | TTCGTGTGCC | 0.94 ± 0.011
28 | CCATTTTGTT | 0.984 ± 0.015
29 | GGTGTCGCTA | 0.9795 ± 0.0094
30 | GACCGGGCTT | 0.9753 ± 0.0038
31 | ACTCGACAGG | 1.8 ± 0.013
32 | AGGAGGTGGC | 1.03 ± 0.017
33 | GATTTTAATG | 0.981 ± 0.013
34 | CAGGAAGCTG | 1.04 ± 0.11
35 | CACTAGAGGT | 1.03 ± 0.06
36 | TTGTGATGTG | 0.986 ± 0.023
37 | CAGGACTTTT | 1 ± 0.0083
38 | GGGATTAGTC | 1.05 ± 0.088
39 | ATCTAGGTCA | 1.02 ± 0.037
40 | AAATTGAGGA | 1.017 ± 0.0096
41 | ACTAGATACG | 1.04 ± 0.018
42 | AAATTTGTTG | 0.992 ± 0.011
43 | TAGAATGTT | 1.01 ± 0.015
44 | TATCGGTCCG | 1.01 ± 0.024
45 | GATGTGGGTG | 0.9957 ± 0.0054
46 | AATTGTTATG | 0.999 ± 0.039

Row | Sequence | switch fluorescence ratio
47 | TAGTTGCTCA | 0.993 ± 0.046
48 | TTGGATGCGG | 1.0022 ± 0.00011
49 | TTATCTGTTG | 1 ± 0.058
50 | TATTTATCGG | 0.991 ± 0.013
51 | CAATGGGGAA | 1 ± 0.014
52 | GTGGTCGGTA | 0.952 ± 0.084
53 | TAAGTTGGGA | 0.98 ± 0.031
54 | GGGGGTGGTA | 0.99 ± 0.045
55 | ATAAAAAGGG | 1 ± 0.029
56 | GTTTTTAACG | 1.02 ± 0.05
57 | TGGGGTGTGG | 1.23 ± 0.36
58 | GAGTGTTGGT | 1 ± 0.022
59 | GTATTTTGGC | 1.025 ± 0.0052
60 | CTAAAAGGGA | 0.95 ± 0.033
61 | TTATGCATGT | 1.02 ± 0.038
62 | AAAAGCTCCG | 1.05 ± 0.033
63 | TCTTTTGAGG | 1.02 ± 0.056
64 | CAATCAGGAC | 1.06 ± 0.041
65 | TTTCGGAGAG | 0.989 ± 0.037
66 | TTTTTGCCTT | 1 ± 0.024
67 | TATTTTTATA | 0.992 ± 0.017
68 | TTTGCAGAAA | 0.996 ± 0.018
69 | TGTATTGCGG | 1.02 ± 0.0071

Row | Sequence | switch fluorescence ratio
70 | TATAGCCTAG | 0.99 ± 0.027
71 | GGGCTAGTTA | 0.9948 ± 0.0073
72 | GAAAGGGGTA | 1.01 ± 0.046
73 | TTTTTCGGTT | 0.998 ± 0.039
74 | AAAATCAAAT | 1.02 ± 0.019
75 | AAATTGCGGC | 0.975 ± 0.012
76 | CTGAGGTATG | 1.023 ± 0.0057
77 | ACTGGGGGAC | 1.04 ± 0.036
78 | GCACTTTTCG | 1.01 ± 0.025
79 | GCGTGCGGGA | 1.02 ± 0.017
80 | AAGGCGGGTA | 1 ± 0.021
81 | TATAATGGCG | 0.961 ± 0.04
82 | TGGGGGTAGG | 1.01 ± 0.027
83 | GGGGACCGGT | 1.054 ± 0.0023
84 | ATAATGGGGT | 1.026 ± 0.0044
85 | CATATTTGAC | 1.04 ± 0.074
86 | TTTGGTAAGC | 1.02 ± 0.036
87 | ACGATTGTCT | 0.973 ± 0.037
88 | TCACCATATT | 1.05 ± 0.02
89 | TTATGTTTCT | 0.972 ± 0.026
90 | CGGGGGCAAG | 1.07 ± 0.016
91 | CGATGGTTTT | 1.01 ± 0.044
92 | GTTTTTGGAA | 1.05 ± 0.013

Row | Sequence | switch fluorescence ratio
93 | TGGTAGCAGG | 1.24 ± 0.35
94 | GTATGAAGTT | 0.982 ± 0.028
95 | TTGGACGGAA | 1.224 ± 0.0051
96 | TTTTATAGAC | 1.04 ± 0.026
97 | TTGTAATGAT | 0.988 ± 0.027
98 | AGTCGTTGAG | 1.02 ± 0.033
99 | TTATTGCGGA | 0.994 ± 0.022
100 | TTGGAGGGCG | 1.03 ± 0.017
101 | ATAAAGTATG | 0.99 ± 0.018
102 | TACTGTGGGT | 0.9726 ± 0.0035
103 | TCAGGGAGGG | 1.06 ± 0.15
104 | AGTCGGACGG | 1.01 ± 0.034
105 | TGGTTTAGGT | 0.995 ± 0.028
106 | GTGCATGGGA | 0.997 ± 0.055
107 | ACGCAATGAT | 5.18 ± 0.069
108 | CAATATGATA | 1.003 ± 0.0011
109 | TCATCTTTTT | 0.9477 ± 0.0022
110 | GGATGTGGGG | 0.969 ± 0.034
111 | GTTTGCGACT | 0.998 ± 0.067
112 | GATTCGTACG | 1.01 ± 0.016
113 | TTAAAGACGG | 1.06 ± 0.11
114 | ACCAGGTGGG | 2.75 ± 0.75
115 | GTTATTTTGT | 0.99 ± 0.019

Row | Sequence | switch fluorescence ratio
116 | GCATGGCTTT | 1.01 ± 0.023
117 | AGGGGTATCG | 1 ± 0.029
118 | TTTCCTGGCG | 1.024 ± 0.0089
119 | GTGTGTGGTC | 1 ± 0.021
120 | ATGTGCTCTA | 0.9692 ± 0.0047
121 | GACAGGGGCG | 1.19 ± 0.16
122 | TGGTGGGAAT | 1.02 ± 0.011
123 | CGGGCATGCT | 1.04 ± 0.034
124 | TACCCGGACA | 1.091 ± 0.0053
125 | GGGTATTGCG | 0.977 ± 0.083
126 | AAAAGTCGGC | 1.04 ± 0.057
127 | GGGGCAGGAC | 1.54 ± 0.7
128 | GTCACGGGCG | 1.006 ± 0.0091
129 | GGTTTTTTTG | 1.02 ± 0.037
130 | GGGGAACTGG | 1.01 ± 0.023
131 | GCACCATAGC | 1.06 ± 0.011
132 | GGTTTATCAA | 1.0008 ± 0.00076
133 | GTTTTCAGTA | 0.982 ± 0.0022
134 | GGTGTTTAAG | 0.9717 ± 0.0067
135 | TGCTTGTGTT | 0.9912 ± 0.0064
136 | GGTTAGGGCG | 1.0062 ± 0.00068
137 | AAGAGGGCCT | 1.01 ± 0.037
138 | ACTATAGTGT | 1.02 ± 0.022

Row | Sequence | switch fluorescence ratio
139 | AAGTGTCGTG | 0.959 ± 0.024
140 | TTTGGGTGAT | 1.02 ± 0.022
141 | ACGGTTTTCA | 0.977 ± 0.011
142 | GGGATAGAAG | 0.971 ± 0.019
143 | GTATGCCTTC | 1 ± 0.032
144 | ATCAATTTAG | 1.02 ± 0.038
145 | CTTAGATGGG | 0.9579 ± 0.0064
146 | GAATGCATTT | 1.02 ± 0.038
147 | AAAGATGTCA | 1.005 ± 0.0029
148 | GGGGGCTGAA | 0.985 ± 0.027
149 | TAATGGGGGT | 0.994 ± 0.025
150 | AGGACCAGGT | 1.02 ± 0.025
151 | TAAGACGGGG | 1.01 ± 0.034
152 | CGTTTACTTA | 1.02 ± 0.02
153 | TTGGCCGATG | 1.001 ± 0.0098
154 | CGGAGAGAGG | 1.01 ± 0.015
155 | GCTTGTTGGG | 1.02 ± 0.038
156 | TAGACTTGTT | 0.996 ± 0.02
157 | CTTAGGACAG | 1.01 ± 0.035

Source: the supplement of paper PMC10126150
